The record followed here is PMC11965522 (Communications Biology, 2025).

Data set [1] has as its target T1, P. furiosus (Pf) Mre11, wild type (P. furiosus, UniProt Q8U1N9 1-426). As to the kind of experiment: SEC. (In general: In gel filtration, larger molecules generally elute earlier.)
Data set [2] deals with T1, P. furiosus (Pf) Mre11, wild type. The data set is described as follows: FRET or BRET. For orientation: In BRET a luciferase serves as donor, and the signal depends on an acceptor being close.
The data set “FRET or BRET” deals with the molecule itself. The data set is described as follows: FRET or BRET.

B1: P. furiosus Rad50 nucleotide-binding domain construct (aa 1-195 - GGAGGAGG linker - aa 709-882) (domain or fragment)
chain: MKLERVTVKNFRSHSDTVVEFKEGINLIIGQNGSGKSSLLDAILVGLYWPLRIKDIKKDEFTKVGARDTYIDLIFEKDGTKYRITRRFLKGYSSGEIHAMKRLVGNEWKHVTEPSSKAISAFMEKLIPYNIFLNAIYIRQGQIDAILESDEAREKVVREVLNLDKFETAYKKLSELKKTINNRIKEYRDILARTEGGAGGAGGRERVKKEIKDLEKAKDFTEELIEKVKKYKALAREAALSKIGELASEIFAEFTEGKYSEVVVRAEENKVRLFVVWEGKERPLTFLSGGERIALGLAFRLAMSLYLAGEISLLILDEPTPYLDEERRRKLITIMERYLKKIPQVILVSHDEELKDAADHVIRISLENGSSKVEVVS
As to B1, the binding result in data set [1] was “binds”.

B2: P. furiosus Rad50^NBD [change] [change], fluorophore-labeled (domain or fragment)
chain: MKLERVTVKNFRSHSDTVVEFKEGINLIIGQNGSGKSSLLDAILVGLYWPCRIKDIKKDEFTKVGARDTYIDLIFEKDGTKYRITRRFLKGYSSGEIHAMKRLVGNEWKHVTEPSSKAISAFMEKLIPYNIFLNAIYIRQGQIDAILESDEAREKVVREVLNLDKFETAYKKLSELKKTINNRIKEYRDILARTEGGAGGAGGRERVKKEIKDLEKAKDFTEELIEKVKKYKALAREAALSKIGELASEIFAEFTEGKYSEVVVRAEENKVRLFVVWEGKERPLTFLSGGERIALGLAFRLAMSLYLAGEISLLILDEPTPYLDEERRRKLITIMERYLKKIPQVILVSHDEELKDAADHVIEISLENGSSKVEVVS
As for B2, the binding result (in data set [2]; in “FRET or BRET”) was “binds” each time.

B3: P. furiosus Rad50^NBD [change] [change]/[change], fluorophore-labeled (domain or fragment)
chain: MKLERVTVKNFRSHSDTVVEFKEGINLIIGQNGSGKSSLLDAILVGLYWPCRIKDIKKDEFTKVGARDTYIDLIFEKDGTKYRITRRFLKGYSSGEIHAMKRLVGNEWKHVTEPSSKAISAFMEKLIPYNIFLNAIYIRQGQIDAILESDEAREKVVREVLNLDKFETAYKKLSELKKTINNRIKEYRDILARTEGGAGGAGGRERVKKEIKDLEKAKDFTEELIEKVKKYKALAREAALSKIGELASEIFAEFTEGKYSEVVVRAEENKVRLFVVWEGKERPLTFLSGGERIALGLAFRLAMSLYLAGEISLLILDEPTPYLDEEREEKLITIMERYLKKIPQVILVSHDEELKDAADHVIRISLENGSSKVEVVS
Take B3: the binding result (in data set [2]; in “FRET or BRET”) was “binds” throughout.

B4: P. furiosus Rad50^NBD [change] [change], fluorophore-labeled (domain or fragment)
chain: MKLERVTVKNFRSHSDTVVEFKEGINLIIGQNGSGKSSLLDAILVGLYWPCRIKDIKKDEFTKVGARDTYIDLIFEKDGTKYRITRRFLKGYSSGEIHAMKRLVGNEWKHVTEPSSKAISAFMEKLIPYNIFLNAIYIRQGQIDAILESDEAREKVVREVLNLDKFETAYKELSELKKTINNRIKEYRDILARTEGGAGGAGGRERVKKEIKDLEKAKDFTEELIEKVKKYKALAREAALSKIGELASEIFAEFTEGKYSEVVVRAEENKVRLFVVWEGKERPLTFLSGGERIALGLAFRLAMSLYLAGEISLLILDEPTPYLDEERRRKLITIMERYLKKIPQVILVSHDEELKDAADHVIRISLENGSSKVEVVS
For B4, the binding result (in data set [2]; in the data set “FRET or BRET”) was “binds” throughout.

B5: P. furiosus Rad50^NBD [change] [change]/[change], fluorophore-labeled (domain or fragment)
chain: MKLERVTVKNFRSHSDTVVEFKEGINLIIGQNGSGKSSLLDAILVGLYWPCRIKDIKKDEFTKVGARDTYIDLIFEKDGTKYRITRRFLKGYSSGEIHAMKRLVGNEWKHVTEPEEKAISAFMEKLIPYNIFLNAIYIRQGQIDAILESDEAREKVVREVLNLDKFETAYKKLSELKKTINNRIKEYRDILARTEGGAGGAGGRERVKKEIKDLEKAKDFTEELIEKVKKYKALAREAALSKIGELASEIFAEFTEGKYSEVVVRAEENKVRLFVVWEGKERPLTFLSGGERIALGLAFRLAMSLYLAGEISLLILDEPTPYLDEERRRKLITIMERYLKKIPQVILVSHDEELKDAADHVIRISLENGSSKVEVVS
Regarding B5, the binding result (in data set [2]; in the data set “FRET or BRET”) was “binds” throughout.
